Measured values: IntAct's records for PubMed 30179222

B1: Nuclear pore complex protein Nup85 (Homo sapiens), Q9BW27 (parent)
chain: MEELDGEPTVTLIPGVNSKKNQMYFDWGPGEMLVCETSFNKKEKSEMVPSCPFIYIIRKDVDVYSQILRKLFNESHGIFLGLQRIDEELTGKSRKSQLVRVSKNYRSVIRACMEEMHQVAIAAKDPANGRQFSSQVSILSAMELIWNLCEILFIEVAPAGPLLLHLLDWVRLHVCEVDSLSADVLGSENPSKHDSFWNLVTILVLQGRLDEARQMLSKEADASPASAGICRIMGDLMRTMPILSPGNTQTLTELELKWQHWHEECERYLQDSTFATSPHLESLLKIMLGDEAALLEQKELLSNWYHFLVTRLLYSNPTVKPIDLHYYAQSSLDLFLGGESSPEPLDNILLAAFEFDIHQVIKECSIALSNWWFVAHLTDLLDHCKLLQSHNLYFGSNMREFLLLEYASGLFAHPSLWQLGVDYFDYCPELGRVSLELHIERIPLNTEQKALKVLRICEQRQMTEQVRSICKILAMKAVRNNRLGSALSWSIRAKDAAFATLVSDRFLRDYCERGCFSDLDLIDNLGPAMMLSDRLTFLGKYREFHRMYGEKRFADAASLLLSLMTSRIAPRSFWMTLLTDALPLLEQKQVIFSAEQTYELMRCLEDLTSRRPVHGESDTEQLQDDDIETTKVEMLRLSLARNLARAIIREGSLEGS
partner: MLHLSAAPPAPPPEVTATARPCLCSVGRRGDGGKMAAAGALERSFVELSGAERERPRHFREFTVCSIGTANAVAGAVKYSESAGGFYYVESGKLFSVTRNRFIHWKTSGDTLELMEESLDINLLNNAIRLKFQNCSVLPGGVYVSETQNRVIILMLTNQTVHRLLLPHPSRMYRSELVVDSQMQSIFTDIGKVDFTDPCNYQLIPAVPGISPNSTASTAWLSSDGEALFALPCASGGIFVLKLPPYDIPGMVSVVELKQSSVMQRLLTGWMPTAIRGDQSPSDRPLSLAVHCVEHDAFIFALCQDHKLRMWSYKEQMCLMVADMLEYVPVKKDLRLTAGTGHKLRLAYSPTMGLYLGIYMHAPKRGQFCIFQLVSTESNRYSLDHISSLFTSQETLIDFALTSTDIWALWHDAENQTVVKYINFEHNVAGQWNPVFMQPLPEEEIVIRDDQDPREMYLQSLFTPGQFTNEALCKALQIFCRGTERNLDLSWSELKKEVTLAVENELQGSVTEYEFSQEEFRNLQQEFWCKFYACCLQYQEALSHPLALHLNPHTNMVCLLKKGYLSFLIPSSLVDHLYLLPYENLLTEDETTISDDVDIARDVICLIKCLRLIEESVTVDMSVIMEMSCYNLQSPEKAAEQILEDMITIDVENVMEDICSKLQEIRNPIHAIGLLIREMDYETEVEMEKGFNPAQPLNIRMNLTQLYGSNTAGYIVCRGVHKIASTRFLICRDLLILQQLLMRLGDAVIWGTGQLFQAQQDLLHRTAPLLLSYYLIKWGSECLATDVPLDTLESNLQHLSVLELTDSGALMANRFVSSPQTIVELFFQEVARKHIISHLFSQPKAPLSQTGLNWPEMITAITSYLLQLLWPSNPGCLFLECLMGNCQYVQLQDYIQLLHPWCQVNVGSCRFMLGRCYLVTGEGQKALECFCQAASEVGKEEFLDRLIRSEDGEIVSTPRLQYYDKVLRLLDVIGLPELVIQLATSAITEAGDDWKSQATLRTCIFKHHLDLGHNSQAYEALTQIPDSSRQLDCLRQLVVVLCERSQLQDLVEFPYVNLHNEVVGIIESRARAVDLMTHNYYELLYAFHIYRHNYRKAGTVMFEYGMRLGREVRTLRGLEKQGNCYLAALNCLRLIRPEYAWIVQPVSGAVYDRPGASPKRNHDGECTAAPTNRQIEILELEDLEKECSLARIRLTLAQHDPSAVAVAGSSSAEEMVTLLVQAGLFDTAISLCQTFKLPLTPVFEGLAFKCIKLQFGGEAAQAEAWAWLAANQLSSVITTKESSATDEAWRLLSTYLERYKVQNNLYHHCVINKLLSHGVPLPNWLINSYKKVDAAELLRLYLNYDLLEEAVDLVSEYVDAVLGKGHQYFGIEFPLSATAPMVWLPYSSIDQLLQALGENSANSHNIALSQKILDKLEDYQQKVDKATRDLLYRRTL

Variants of: B1
Conditions: with nu160_human NUP160, Q12769

Row | Variant | effect of a mutation on the interaction
1 | A477V | decreasing interaction strength
2 | R645W | decreasing interaction strength
3 | A581P | disrupting interaction strength

Variants of: B1
Conditions: with nu160_human NUP160, Q12769
Remark: another data set of the same source

Row | Variant | effect of a mutation on the interaction
4 | A477V | with no effect
